Consider one molecule from PMC5187420, “Structural insights into ribosomal rescue by Dom34 and Hbs1 at near-atomic resolution” (Nature Communications, 2016).

The experiment addresses T1, Hbs1 (S. cerevisiae, UniProt P32769 1-611).
T1 construct: Hbs1, S. cerevisiae, eEF1A-like GTPase; N-terminal domain is seen in the map, linker aa 78-140 disordered; source: E. coli BL21 (DE3), purified (Nickel-NTA, size-exclusion chromatography)
T1 sequence (looked up): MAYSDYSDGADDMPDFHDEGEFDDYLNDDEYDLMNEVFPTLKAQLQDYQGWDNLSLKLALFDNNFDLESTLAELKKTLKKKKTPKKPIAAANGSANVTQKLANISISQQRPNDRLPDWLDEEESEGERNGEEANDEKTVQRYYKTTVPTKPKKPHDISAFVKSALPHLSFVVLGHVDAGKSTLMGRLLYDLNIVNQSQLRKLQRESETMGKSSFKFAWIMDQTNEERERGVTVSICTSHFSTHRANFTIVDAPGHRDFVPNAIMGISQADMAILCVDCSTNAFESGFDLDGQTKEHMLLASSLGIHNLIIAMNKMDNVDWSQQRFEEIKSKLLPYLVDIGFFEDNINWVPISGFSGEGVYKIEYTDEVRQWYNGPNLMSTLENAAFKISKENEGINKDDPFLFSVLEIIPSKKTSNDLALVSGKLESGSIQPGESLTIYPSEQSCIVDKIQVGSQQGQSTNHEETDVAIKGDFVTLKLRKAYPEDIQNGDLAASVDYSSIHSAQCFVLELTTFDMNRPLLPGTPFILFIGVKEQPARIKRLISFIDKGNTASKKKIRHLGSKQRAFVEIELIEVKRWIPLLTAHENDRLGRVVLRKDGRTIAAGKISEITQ
The experiment is described as follows: cryo-EM structure; Dom34 and Hbs1 (50 pmol each) pre-incubated with 1 mM GMPPNP in binding buffer (30 mM Hepes pH 7.5), 20 min at 30 °C, then combined with 10 pmol reassociated S. cerevisiae 80S ribosomes programmed with nonstop mRNA and AcPhe-tRNAPhe, 15 min at 30 °C; reconstruction at 3.3 Å. Particulars: both partners purified.

B1: Dom34 (natural protein, S. cerevisiae)
chain: MKVISLKKDSFNKGGAVITLLPEDKEDLFTVYQIVDKDDELIFKKKFTSKLDEAGKKKSTDLVKLKIKVISEDFDMKDEYLKYKGVTVTDESGASNVDIPVGKYLSFTLDYVYPFTIIKQNFNKFMQKLLNEACNIEYKSDTAAVVLQEGIAHVCLVTSSSTILKQKIEYSMPKKKRTTDVLKFDEKTEKFYKAIYSAMKKDLNFDKLKTIILCSPGFYAKILMDKIFQYAEEEHNKKILDNKGMFFIAHCSTGYLQGINEVLKNPLYASKLQDTKYSKEIMVMDEFLLHLNKDDDKAWYGEKEVVKAAEYGAISYLLLTDKVLHSDNIAQREEYLKLMDSVESNGGKALVLSTLHSLGEELDQLTGIACILKYPLPDLDEDDGEE
notes: Dom34, S. cerevisiae; also called Pelota in mammals; source: E. coli BL21 (DE3), purified (Nickel-NTA, size-exclusion chromatography)
For the molecule B1, the binding result is reported as “binds”.
